Laboratory results from publication PMC3809612.

Target: rat collagen (Type I collagen), coated on 96-well plates (rat) (UniProt P02454)
Test: binding of fluorescent protein or nanoworm conjugate to coated 96-well plates

UniProt P02454, sequence (P02454 152-1207, chain 1 of 2): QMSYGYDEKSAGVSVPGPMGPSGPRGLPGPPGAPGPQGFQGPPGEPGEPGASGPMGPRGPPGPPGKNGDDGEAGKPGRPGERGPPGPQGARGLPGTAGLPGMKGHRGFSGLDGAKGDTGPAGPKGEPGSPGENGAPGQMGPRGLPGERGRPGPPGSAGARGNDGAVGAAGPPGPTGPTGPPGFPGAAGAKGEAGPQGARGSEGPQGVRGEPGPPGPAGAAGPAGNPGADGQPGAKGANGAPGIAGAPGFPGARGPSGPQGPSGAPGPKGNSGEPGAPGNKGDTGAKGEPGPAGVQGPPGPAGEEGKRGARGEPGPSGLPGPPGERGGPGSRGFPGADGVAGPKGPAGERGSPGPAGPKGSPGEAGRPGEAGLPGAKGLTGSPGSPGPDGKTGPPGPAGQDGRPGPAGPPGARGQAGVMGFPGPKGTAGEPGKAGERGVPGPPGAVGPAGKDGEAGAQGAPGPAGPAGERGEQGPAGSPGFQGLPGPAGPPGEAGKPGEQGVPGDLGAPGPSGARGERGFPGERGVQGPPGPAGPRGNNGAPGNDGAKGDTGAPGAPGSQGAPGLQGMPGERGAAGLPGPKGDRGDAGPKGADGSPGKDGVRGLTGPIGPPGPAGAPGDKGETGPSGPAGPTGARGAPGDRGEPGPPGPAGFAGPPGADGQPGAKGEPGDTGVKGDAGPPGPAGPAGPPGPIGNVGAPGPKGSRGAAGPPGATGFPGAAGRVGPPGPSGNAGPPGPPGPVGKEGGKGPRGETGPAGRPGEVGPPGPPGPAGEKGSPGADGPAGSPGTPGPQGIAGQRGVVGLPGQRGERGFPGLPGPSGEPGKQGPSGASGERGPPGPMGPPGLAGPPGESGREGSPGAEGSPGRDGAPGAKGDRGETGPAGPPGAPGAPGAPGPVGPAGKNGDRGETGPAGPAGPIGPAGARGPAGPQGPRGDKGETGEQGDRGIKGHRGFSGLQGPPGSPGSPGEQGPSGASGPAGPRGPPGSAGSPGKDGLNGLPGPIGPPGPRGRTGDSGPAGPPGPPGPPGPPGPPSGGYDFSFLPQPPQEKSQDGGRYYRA
UniProt P02454, sequence (P02466 86-1125, chain 2 of 2, further chain): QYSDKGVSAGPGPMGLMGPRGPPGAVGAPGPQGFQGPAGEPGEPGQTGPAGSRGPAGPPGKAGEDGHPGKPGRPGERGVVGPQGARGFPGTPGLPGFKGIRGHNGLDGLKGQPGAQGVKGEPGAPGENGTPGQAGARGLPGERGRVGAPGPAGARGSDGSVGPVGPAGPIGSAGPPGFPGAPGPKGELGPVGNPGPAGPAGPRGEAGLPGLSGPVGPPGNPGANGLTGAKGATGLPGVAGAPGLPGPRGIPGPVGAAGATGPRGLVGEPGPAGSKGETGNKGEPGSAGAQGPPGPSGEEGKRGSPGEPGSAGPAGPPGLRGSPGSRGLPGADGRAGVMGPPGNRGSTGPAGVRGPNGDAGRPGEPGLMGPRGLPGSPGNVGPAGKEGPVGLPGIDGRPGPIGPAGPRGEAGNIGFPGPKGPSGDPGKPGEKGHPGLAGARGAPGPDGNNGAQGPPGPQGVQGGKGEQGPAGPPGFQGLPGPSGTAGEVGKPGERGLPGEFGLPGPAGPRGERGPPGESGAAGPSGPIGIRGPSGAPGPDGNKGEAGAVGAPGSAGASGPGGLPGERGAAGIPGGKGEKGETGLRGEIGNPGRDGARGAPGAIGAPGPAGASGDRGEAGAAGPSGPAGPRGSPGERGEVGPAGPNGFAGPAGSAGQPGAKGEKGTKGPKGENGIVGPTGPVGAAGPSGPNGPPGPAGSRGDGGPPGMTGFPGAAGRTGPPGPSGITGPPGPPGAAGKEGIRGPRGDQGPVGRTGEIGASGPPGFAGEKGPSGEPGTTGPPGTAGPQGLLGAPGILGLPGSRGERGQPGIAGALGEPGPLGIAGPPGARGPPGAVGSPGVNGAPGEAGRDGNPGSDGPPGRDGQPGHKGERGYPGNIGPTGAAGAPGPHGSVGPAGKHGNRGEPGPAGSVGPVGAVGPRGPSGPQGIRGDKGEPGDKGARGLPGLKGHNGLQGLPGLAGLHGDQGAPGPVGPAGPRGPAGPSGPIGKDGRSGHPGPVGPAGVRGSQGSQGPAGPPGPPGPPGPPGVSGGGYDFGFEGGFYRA

Row | fold increase in binding over unheated controls | half-maximal binding temperature (temperature to which the collagen was heated) | fold increase in binding to heated collagen, normalized to collagen at 37 °C | Substance
1 | 6 fold | 41.7 °C | – | fibronectin fragment-conjugated iron oxide nanoworms
2 | – | 43.4 °C | 7.2 x | 45-kDa gelatin-binding fibronectin proteolytic fragment, labelled with VivoTag-S750 (domain or fragment)
